Two molecules from publication PMC3549490 can be followed below.

In this test the target is UNC-45 (C. elegans), full-length recombinant protein (C. elegans). The test can be described thus: ITC.

B1: Hsp90 (DAF-21) C-terminal peptide … (peptide)
peptide: EDASRMEEVD
With B1, the Kd turned out to be 14 µM.

B2: Hsp70 (HSP-1) C-terminal peptide … (peptide)
peptide: AGGPTIEEVD
As for B2, the Kd turned out to be 120 µM.
